Test results reported in the supplement of paper PMC9732359.
± gives the uncertainty stated by the source.

Assay: protein stability index of a GFP-peptide fusion (yeast GPS) (PSI 1-4); higher = more stable; sorted into four equal gates, so the index is relative within each strain
How it was run: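 Mid-log yeast cultures in leucine-free medium, carrying a pooled plasmid library, were sorted into four equal gates by their GFP/Cherry fluorescence ratio. Each plasmid expressed Cherry along with GFP fused upstream of a tiled 17-residue yeast protein peptide. Plasmids recovered from each gate were PCR-amplified and Illumina-sequenced, with reads assigned to strains by barcodes. The protein stability index was obtained by summing each gate's read frequency weighted by its gate number.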

Sequence	protein stability index (doa10∆)	protein stability index (pdr5∆)	protein stability index (san1∆)	protein stability index (ubr1∆)
SHKTTKEDTVSWFKQKY [RPL11A]	1.8 ± 0.064	1.56 ± 0.054	1.36 ± 0.12	1.53 ± 0.064
SHNWAAKAKRRHTTGTG [RPL37B]	3.29 ± 0.1	2.92 ± 0.058	3.33 ± 0.071	3.35 ± 0.056
SHPEKRMIPPRMVRSIM [SSN3]	3.25 ± 0.1	3.01 ± 0.075	2.33 ± 0.065	3.19 ± 0.066
SIDSTSRIELELKNIGL [ECM29]	2.59 ± 0.052	2.75 ± 0.045	2.74 ± 0.042	2.44 ± 0.028
SIESKLEEHKNHLDELQ [SMC1]	2.99 ± 0.093	2.86 ± 0.13	2.92 ± 0.069	3 ± 0.076
SIEVQSLPEFFTNRIPS [SWI3]	2.64 ± 0.055	2.66 ± 0.048	2.51 ± 0.064	2.61 ± 0.047
SIGEPGTQMTLKTFHFA [RPO31]	–	–	2.56 ± 0.096	2.65 ± 0.17
SIGSIYQWNLDGLQQLD [RPN1]	3.26 ± 0.1	3.4 ± 0.068	1.93 ± 0.1	2.96 ± 0.067
SIHVNRVERSSRSTDNF [RRI1]	3.32 ± 0.074	3.18 ± 0.069	3.03 ± 0.058	3.02 ± 0.051
SILPTRDDLFVRNLQGI [NUT1]	1.69 ± 0.094	2.19 ± 0.11	2.05 ± 0.15	1.56 ± 0.058
SINISCVQLIKCLVEKS [SWI1]	1.78 ± 0.067	2.41 ± 0.055	2.27 ± 0.1	1.81 ± 0.045
SIRLKVPPTIAQFQYTL [RPL8A]	2.09 ± 0.047	2.36 ± 0.04	1.93 ± 0.064	2.19 ± 0.035
SIRRQDYINELSNSNRF [REC8]	2.82 ± 0.17	3.21 ± 0.12	3.4 ± 0.092	3.2 ± 0.12
SIYKYIHLNELLTNDES [SNF12]	2.54 ± 0.063	2.71 ± 0.053	2.19 ± 0.071	2.63 ± 0.084
SKDELREKLAEVYKAEK [RPS24A]	3.51 ± 0.16	3.48 ± 0.15	3.59 ± 0.08	3.56 ± 0.16
SKEDTLRLCLDIVPYFL [RPN1]	1.92 ± 0.05	1.92 ± 0.033	1.58 ± 0.081	2.12 ± 0.057
SKEGQYKAKIKELENNL [YIL149C/MLP2]	2.75 ± 0.12	1.49 ± 0.053	2.18 ± 0.13	3.03 ± 0.069
SKFNNADDVFTGTGLQD [RPC31]	3.35 ± 0.1	3.38 ± 0.091	3.12 ± 0.056	3.17 ± 0.066
SKGYVKTQFSWQYYYYT [RPS10A]	2.81 ± 0.077	2.54 ± 0.06	2.76 ± 0.05	2.92 ± 0.056
SKIFRFQNSKSASLFKQ [RPL24A]	2.63 ± 0.097	3.04 ± 0.085	2.54 ± 0.096	2.1 ± 0.073
SKIIVFPRDGKAPEAEQ [RPL13B]	3.15 ± 0.085	3.2 ± 0.08	3.18 ± 0.058	3.33 ± 0.052
SKKDPRILKNVSPNDNN [YMR153W/NUP53]	2.65 ± 0.069	2.36 ± 0.045	2.42 ± 0.054	2.47 ± 0.034
SKLDYIFKDKEKLVSDL [SMC1]	2.89 ± 0.15	3.24 ± 0.085	3.27 ± 0.2	3.37 ± 0.083
SKLKEEEAALLIKERQE [ESC2]	2.85 ± 0.074	2.88 ± 0.065	2.83 ± 0.043	2.9 ± 0.054
SKLKLKNLLRKNLSIDE [ECM29]	1.71 ± 0.086	1.47 ± 0.054	1.46 ± 0.098	1.76 ± 0.062
SKLMPVLKSSVYEYVIA [RPC82]	1.42 ± 0.061	1.57 ± 0.059	1.25 ± 0.1	1.46 ± 0.056

Sequence	protein stability index (doa10∆)	protein stability index (pdr5∆)	protein stability index (san1∆)	protein stability index (ubr1∆)
SKLRNNIRSQLLSENRS [SRP54]	2.8 ± 0.069	2.58 ± 0.094	2.67 ± 0.06	2.85 ± 0.049
SKNELKKAFTSYDRTLL [RPS16A]	2.76 ± 0.067	3.14 ± 0.057	3.12 ± 0.07	2.91 ± 0.077
SKNMSKSPSLTAQKYPI [YMR153W/NUP53]	2.46 ± 0.051	2.46 ± 0.044	2.48 ± 0.055	2.51 ± 0.043
SKQNGSKFHFSWNESED [PRP28]	2.73 ± 0.061	2.94 ± 0.064	2.72 ± 0.072	2.79 ± 0.046
SKQTPQPKAPRAPKVIH [ISW2]	2.91 ± 0.05	3.14 ± 0.054	2.93 ± 0.041	3.14 ± 0.047
SKRRITEELSITGEKLD [SMC1]	2.17 ± 0.08	2.22 ± 0.072	2.18 ± 0.1	2.01 ± 0.078
SKSKQSFTQGELNDLKW [YMR129W/POM152]	3.02 ± 0.13	2.81 ± 0.13	3.08 ± 0.11	2.75 ± 0.092
SKSLQESGDTQEEDEEE [RPC82]	3.5 ± 0.19	3.48 ± 0.15	3.29 ± 0.08	3.48 ± 0.12
SKTSENKVSNTVSPTQD [SIR2]	2.98 ± 0.14	3.12 ± 0.066	2.83 ± 0.093	3.15 ± 0.12
SKVGSADTGRDDTKETV [RPN11]	3.14 ± 0.13	3.36 ± 0.089	3.59 ± 0.068	3.04 ± 0.12
SKVVIDSIIDNIVKLCF [IRR1]	2.75 ± 0.079	2.32 ± 0.034	2.2 ± 0.089	2.45 ± 0.026
SLDFLNQSFIQQKANLL [COR1]	–	1.77 ± 0.13	–	1.65 ± 0.079
SLEDKILRMGAFRTIES [RRI1]	2.24 ± 0.17	2.04 ± 0.2	1.83 ± 0.18	2.28 ± 0.073
SLFHIVVDTEETATLIM [SMC3]	2.35 ± 0.15	2.17 ± 0.15	1.68 ± 0.17	2.23 ± 0.098
SLFSHRKHTRGDVSSGL [BRN1]	3.28 ± 0.19	3.01 ± 0.17	3.28 ± 0.16	3.22 ± 0.059
SLGFNEVFSRPEWMILT [RPO21]	1.5 ± 0.11	1.74 ± 0.1	1.62 ± 0.12	1.21 ± 0.066
SLHILMIFWNDICQIDT [SRB8]	1.36 ± 0.031	1.33 ± 0.032	1.52 ± 0.053	1.92 ± 0.029
SLHRQQQQQQQQVPPLP [DLS1]	2.78 ± 0.056	2.81 ± 0.06	2.63 ± 0.046	2.94 ± 0.061
SLIIDQQENSKSGKRKP [RPC31]	2.71 ± 0.099	2.7 ± 0.1	2.69 ± 0.086	2.7 ± 0.092
SLIKETNQLVLLQKMLN [YML103C/NUP188]	–	1.29 ± 0.094	1.06 ± 0.096	1.02 ± 0.077
SLKGLQSKLKDVVEYLD [RPN8]	2.92 ± 0.083	2.27 ± 0.055	2.71 ± 0.069	2.48 ± 0.048
SLLASKSTYRTPNFDDV [RIP1]	2.78 ± 0.29	–	–	3.49 ± 0.17
SLNEKNALHTERLHELK [SMC1]	3.36 ± 0.061	3.11 ± 0.065	2.89 ± 0.067	2.81 ± 0.054
SLNTKKNEKLILEESLN [SMC3]	2.18 ± 0.064	2 ± 0.074	2.59 ± 0.15	2.6 ± 0.078
SLPRFSKPVLIVGQKNL [DIS3]	2.2 ± 0.089	2.42 ± 0.074	1.77 ± 0.082	1.7 ± 0.12
SLQQMQHLQQLKMQQQQ [GAL11]	2.05 ± 0.096	2.09 ± 0.06	2.36 ± 0.099	1.41 ± 0.08
